# Experiments:
# Asp76 = Asp76 (UniProt position 76, TLNETDLTQIP); assay: fluorescence; settings: 20 °C; not stated (McIlvaine buffer: mixtures of 0.1 M citric acid and 0.2 M Na2HPO4; 10 mM KCl adjusted with HCl for more acid solutions); McIlvaine buffer (citric acid / Na2HPO4) for pH 2.6-7; 10 mM KCl/HCl for more acid solutions; 50 uM protein, no ligand; dimer at neutral pH, monomer below about pH 3
# [1] = target: HdeB E41Q, C-terminal His6 E41Q (UniProt P0AET2); assay: Intrinsic tryptophan fluorescence (emission maximum, intensity, acrylamide Stern-Volmer quenching constant, steady-state anisotropy) as a function of pH; settings: pH 1.5-7.5; 20 °C; Not stated as a number. It varies with the McIlvaine mixing ratio; 10 mM KCl below pH 2.6.; McIlvaine buffer (mixtures of 0.1 M citric acid and 0.2 M Na2HPO4) for pH 2.6-7; 10 mM KCl adjusted with HCl for more ac
# [2] = target: HdeB (acid stress chaperone HdeB), wild type, C-terminal His6 (UniProt P0AET2); assay: as above; settings: pH 1.5-7.5; 20 °C; Not stated as a number. It varies with the McIlvaine mixing ratio; 10 mM KCl below pH 2.6.; McIlvaine buffer (mixtures of 0.1 M citric acid and 0.2 M Na2HPO4) for pH 2.6-7; 10 mM KCl adjusted with HCl for more ac
# [3] = target: the molecule itself; assay: SEC; gel filtration at neutral pH (pH 7)
# [4] = target: the molecule itself; assay: other fluorescence titration; intrinsic tryptophan fluorescence (emission maximum, acrylamide quenching, anisotropy) against pH 1.5 to 7.5; 50 μM HdeB, McIlvaine buffer, 20 °C; apparent pKa; neutral side of the transition
# [5] = target: the molecule itself; assay: other fluorescence titration; emission maximum against HdeB concentration (1-100 μM, as monomers) at pH 7.5; dimer to monomers
# [6] = target: the molecule itself; assay: crystal structure; methylated HdeB-His6 at 15 mg/ml; 50% (v/v) polyethylene glycol 400, 0.1 M acetate pH 4.5, 0.2 M Li2SO4; 1.5 Å; dimer found with PISA
molecule,measurement,setting,value
Acid stress chaperone HdeB H59N (His6-tagged) (Escherichia coli; H59N),pKa,Asp76,3.5
Acid stress chaperone HdeB (HdeB-His6 WT) (Escherichia coli),pKa,Asp76,2.9
"HdeB E41Q, C-terminal His6 E41Q",shift of the apparent pKa of dimer dissociation relative to wild type (50 uM),[1],apparent pKa ∼ 0.5 pH units higher than that of wild type
"HdeB (acid stress chaperone HdeB), wild type, C-terminal His6",effective pKa of dimer dissociation (midpoint of the dimer-to-monomer transition at 50 uM),[2],effective pKa ≈ 3 for dissociation of the dimer
"HdeB D76N (natural protein, E. coli, UniProt P0AET2 30-108, looked up, HdeB, E. coli, with D76N; residue numbers count on the precursor; Probably made from the HdeB-His6 construct; also called D67N (as printed in two places)) ANESAKDMTCQEFIDLNPKAMTPVAWWMLHEETVYKGGDTVTLNETNLTQIPKVIEYCKKNPQKNLYTFKNQASNDLPN",binding result,[3],binds
"HdeB H59N (natural protein, E. coli, UniProt P0AET2 30-108, looked up, HdeB, E. coli, with H59N; residue numbers count on the precursor; Probably made from the HdeB-His6 construct; also called H59N mutant) ANESAKDMTCQEFIDLNPKAMTPVAWWMLNEETVYKGGDTVTLNETDLTQIPKVIEYCKKNPQKNLYTFKNQASNDLPN",binding result,[4],binds
"HdeB-His6 WT (natural protein, E. coli, UniProt P0AET2 30-108, looked up, HdeB, E. coli periplasmic acid-stress chaperone; begins at A30; A30 to A102 ordered in the crystal plus six disordered C-terminal residues; residue numbers count on the precursor; Cloned with hdeA (hdeAB genes) in pTrc99A; primers are in the Supplementary Data; also called HdeB WT; wild type; source: E. coli MG1655ΔhdeAB, plasmid pTrcHdeABHis6, 1 mM IPTG, purified (Ni resin, gel filtration); not …) ANESAKDMTCQEFIDLNPKAMTPVAWWMLHEETVYKGGDTVTLNETDLTQIPKVIEYCKKNPQKNLYTFKNQASNDLPN",Kd,[5],< 1 µM
same,stoichiometry N,[3],2
"HdeB (methylated) (natural protein, E. coli, UniProt P0AET2 30-108, looked up, reductively methylated lysines: doubly methylated K48, K88 and K93; some modification of K35, K65, K89 and K99; K82 apparently unmodified, HdeB, E. coli; A30 to A102 ordered, six C-terminal residues and the His-tag disordered; residue numbers count on the precursor; A selenomethionine variant, treated identically, was used for phasing only; also called methylated HdeB-His6; HdeB after reductive methylation; source: E. coli MG1655ΔhdeAB, purified (Ni resin, gel filtration), then reductive methylation and gel filtration; not shown: …) ANESAKDMTCQEFIDLNPKAMTPVAWWMLHEETVYKGGDTVTLNETDLTQIPKVIEYCKKNPQKNLYTFKNQASNDLPN",stoichiometry N,[6],2
"HdeB E41Q (natural protein, E. coli, UniProt P0AET2 30-108, looked up, HdeB, E. coli, with E41Q; residue numbers count on the precursor; The methods speak of 'purified HdeB-His6 WT and E41Q samples'; probably the same construct and host as the wild type; also called E41Q mutant; source: purified mutant protein) ANESAKDMTCQQFIDLNPKAMTPVAWWMLHEETVYKGGDTVTLNETDLTQIPKVIEYCKKNPQKNLYTFKNQASNDLPN",Kd,[5],34 µM

# Source: PMC3299563, “Salt Bridges Regulate Both Dimer Formation and Monomeric Flexibility in HdeB and May Have a Role in Periplasmic Chaperone Function” (Journal of Molecular Biology, 2011)
